{
  "source": "the domain aggregation screens of Martell et al. (2025)",
  "data": [
    {"experiment": "soluble fraction after stress (log2 fold change); higher = more stays soluble; pooled small domains, quantitative proteomics", "details": "stress: 50 degC", "how_it_was_run": "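The measure of aggregation propensity here is the base-two logarithm of the fold change in the soluble amount of each protein after stress. A higher value means more of that protein stays in solution. Stress was applied at 50°C to pooled libraries of small protein domains, read out by high-throughput quantitative proteomics.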", "values": [
      {"sequence": "HMEKKSKLVLAVLQGSDSDNTIRNLNERGFMVTVLSSTGGFLKKKSTTVMIGVEEDRLEEALDVLQKYAG", "soluble fraction (log2)": -0.295},
      {"sequence": "HMTDLNDTQIKILELLSADASLSAAKMAGQLGIAGRNVEANIKKLKEKGILIRHGSPKSGYWEIVN", "soluble fraction (log2)": -0.0982},
      {"sequence": "HMRAVPTKLAPFVEVLKAMLEADGHRPKAQRRTAKALHLELISRGYAGGYTRLTDYIRDWRQQQG", "soluble fraction (log2)": -2.34},
      {"sequence": "HMDLDSGVAVLRTLMSQHNLQTDDFQNEIGGKSMVSMILNGTRKLSKNHIQALSGRFNLSPALFF", "soluble fraction (log2)": -0.962},
      {"sequence": "HMPKTLTEAAYEDIKQWILEGEITPGSKISLEDTASRLEVSMTPIREALTKLQQEGLVEYIPRAGWRASK", "soluble fraction (log2)": 0.173},
      {"sequence": "HMSVFTDIYHQADHETKLMLIHEIKIVGDEKEFRLLKSIIDSTSNDLSKEANDALNAIKIRLALSK", "soluble fraction (log2)": -2.49},
      {"sequence": "HMNSVKSPMPGTILGLKVSVGDTVKVGDELLVLESMKMENMINSPIDGTVSKILISEGDSVQHGQELII", "soluble fraction (log2)": 0.215},
      {"sequence": "HMSREQARRFYFDTWAKHRASQPLTDLEKIALTVMLLHPEYHSLLDKPDHYVDKDYSPEAGQTNPFLHM", "soluble fraction (log2)": -1.2},
      {"sequence": "HMRNLYEILGVSKDAPQGEIKSAYRKLAKTYHPDLNPNNEKAAELFKEINQAYEVLSDETKRRHYDQFGEA", "soluble fraction (log2)": 0.312},
      {"sequence": "HMGKVLIYKPNMSVSDVAIRLGISNAEIIKRLMGLGVMTSINQTIDRDTIELVAMDLGFSIEN", "soluble fraction (log2)": -0.656},
      {"sequence": "HMSGTMYATAEVNVRSTYSSDGTIYGTLSKGTAVEITGTTDNGWVRVKYNGTTAYVYADYLSWKAP", "soluble fraction (log2)": -0.671},
      {"sequence": "HMNFTETENRIYEEILKNVKQHKKKTVVQIAEKVDVAPSYVIKVAKKLGYSGLNEMWYSLSGIY", "soluble fraction (log2)": -0.54},
      {"sequence": "HMHLPDNAVSIISELKMTPEEVLELIGKLPHDFLFLPYSQRKKIIVDLIPNKDYKLLMSLIKKFML", "soluble fraction (log2)": -1.12},
      {"sequence": "HMPTTRPEAEAHYETHQRYHDLQIDVEGREAFKVATGSLTLVQEFDEKDDYDLSIPTPRSPAILLTT", "soluble fraction (log2)": 0.0218},
      {"sequence": "HMISDQENDLNLKHLFDTADQNKDGLILESELKMLMTNLEINKETYDTVMKQITPAGMDYKTFSSL", "soluble fraction (log2)": 0.0963},
      {"sequence": "HMFDDLSTNLRDLAHNYIEKYSPSKQQLKVFLLKKYLMKFKGSKTKKEISEIIDKIISNLEENKYLNDEL", "soluble fraction (log2)": 0.0632},
      {"sequence": "HMDLKSLEFAIVENVQRHDLNPLEEAQGYKRLIDEFSYDQDKVSKFIGKSRSYITNSLRLLNLPLEVLEF", "soluble fraction (log2)": -0.049},
      {"sequence": "HMDRQIQITVAENEAGQRLDAFLAAKIPDMSRSYIQKLIEDGLILVNGQSTKGKVKTYSGMNIEVYMPE", "soluble fraction (log2)": 0.166},
      {"sequence": "HMGDPSSERNIQKSIFILIGEKALSVQDISRSLGMPNDIIDKALISGVERNLWLSSDKGEYYL", "soluble fraction (log2)": -1.1},
      {"sequence": "HMSSIFTRIIAGEIPSYKVAEDENYYAFLDINPLTKGHTLVVPKMEVDYIFDLDDKTLAGMMLFAKKG", "soluble fraction (log2)": -0.0969},
      {"sequence": "HMDGNVPSVEGKPLSGAKYILETYGYKTGTVTEVNSEDVPAGIVISQNPARGTTLANGGSVNLQVSLG", "soluble fraction (log2)": 0.321},
      {"sequence": "HMIDIDNLEKAAILLLSMGTEAAAKVMQKLSRDEVQRLISKMASLSGVSSIEAKWTLQQFFNQYREQSG", "soluble fraction (log2)": -0.638},
      {"sequence": "HMDSATDRVALKELLNTLSARERTIITLRYFSDQTQTQVAKSLGISQVQVSRLENAILQRLRKL", "soluble fraction (log2)": -1.94},
      {"sequence": "HMKPAFTPYVVKVTADVLNVRSGPGTNYGITTKVKKGEAYTIVEEKNGWGKLKSGAGWISLEYTVK", "soluble fraction (log2)": -0.109},
      {"sequence": "HMPRELKVRDVSHQHAGHAGWREGGETHFEVDMKADVFAGTSRVAAHRMVNKVLANELASRVHALQLNLS", "soluble fraction (log2)": 0.0371},
      {"sequence": "HMYSRQRDLILKALRENVVHPTADFIYTVLKEKEPNLSLATVYRNLNLLANEGIIRKIEGLDGVAHFDH", "soluble fraction (log2)": -1.46},
      {"sequence": "HMHHIDTAWFRGKMREHRLTQEAVGQAIGLERSMVSKIIKGTVSFNARKASAWAQLLRVSESEILERVGI", "soluble fraction (log2)": -2.37},
      {"sequence": "HMKESRFDYDAVLLYSDKDSITEVKDAVQHLTKEFGSVFTTKKIPEKATFGKLFRIEKGEVNIIEDN", "soluble fraction (log2)": -0.0248},
      {"sequence": "HMGDRRSVFEQSVLDAIKSLVKQGELATTKAISDHIGTNYQGNVSRAITALLADNKIKKLPKEGVLQPYEA", "soluble fraction (log2)": 0.0535},
      {"sequence": "HMSIQELMNSKDLSSFKVEMLSDEDIAKYKGLLQNSGLTEAQAEQMALQRGLPSSELLKLKARLSGI", "soluble fraction (log2)": 0.128},
      {"sequence": "HMNKEVDLPNFVGMTKENAQAQADKIKIKLEFEEEYSSDVEEGKIISQNPEYKENYKIKEKSTVSLKI", "soluble fraction (log2)": 0.118},
      {"sequence": "HMGETAFRYALPLDQGEALKRSHVIRQSISPDDALATRVTVLEDVLDQTLRQPVQAGEVLLEDHFTR", "soluble fraction (log2)": -0.00712},
      {"sequence": "HMLLNLSPIETQVLRLIQQDKKVTYESIGKELTIGQTKVYKVLGHLKELNVIERIGGRTYGHWHILL", "soluble fraction (log2)": -1.03},
      {"sequence": "HMKVSRTAVKLHHANAVEVAKKLQPLFVVGDVQIEPVKDAGIILLKGPASTLADLRESIVQMDHTA", "soluble fraction (log2)": -0.0461},
      {"sequence": "HMGRPTLEQLLDRAQAMGVPRERYAAYADRRWGRGWRVNPHGRGRAWDELDRYRNDPAGYLDKIEVELNQL", "soluble fraction (log2)": -0.101},
      {"sequence": "HMGPNSVPDLRGKSLRQAMKMVNDLELKAIFEGEGIVVGQVPAPGKPVPETKILKITLSLEPY", "soluble fraction (log2)": -0.109},
      {"sequence": "HMPGGLSAEDVEKMVEKVLTVNGDVVEEIRSGRDPKGKKIKFLAGLVMRDARGQADAAAVSGILERRLKEG", "soluble fraction (log2)": 0.133},
      {"sequence": "HMEQSGDELKTWVDQAIAAYPEKVKEYQQGKKGLLALFIGEVMKRSKGTADPKKVNQLVTEALS", "soluble fraction (log2)": 0.045},
      {"sequence": "HMEQWVSIEVEPGIRLDVALTEATQKSRSFIQNLIAEQRVLVNGQPKKANYKVRPGDHVELNYPEPT", "soluble fraction (log2)": 0.0849},
      {"sequence": "HMYVQDPVDRLVLESALRLLREQEREIIFLHLVAGLKHREIAGLLHLPLSTVLSGYRRALTKMKSYLEE", "soluble fraction (log2)": -0.115},
      {"sequence": "HMNTKHVFIIEQDDEKKRLDIFLVEKLQDSRSFLKKGIVEGWVKVNESVVKPNYKLKQKDQITVIIPP", "soluble fraction (log2)": -0.278},
      {"sequence": "HMRPQIAIDAIQALSLIMRTENKEDPTYLESRRVVSDAVAKRLSLNPTDLNRAWSRAPRDHQIAVLSALTQ", "soluble fraction (log2)": -0.853},
      {"sequence": "HMDPSVTGLLTRLGISPQTAQELAGQYEEPYILEKIAIVEAHPEYVKNAAGFVITALQEDWKD", "soluble fraction (log2)": -0.255},
      {"sequence": "HMDSVPEEQLRQLALDKAKEVKRWGQPVELAKMNAHDRRIIHINLQDDPEIETRSEGEGALKSVIISLKK", "soluble fraction (log2)": 0.172},
      {"sequence": "HMVAELAEMAENKNITSAQLALAWILKQSENIIPIPGTKRIKYLNENIEAVNVDLSKEDVENIENLLRKYP", "soluble fraction (log2)": -0.0297},
      {"sequence": "HMGDLVFDFVHGVHKAAEVEKELVMQALRFTHGNVSRAARLIGMQRSSLRYRIERYRLDAFVMEVAN", "soluble fraction (log2)": 0.3},
      {"sequence": "HMLRQRVFRIIQNNINSKNYFVYTKQILAELAGISMRSLNRTLSELQNDRLIIVDSGTIRLFT", "soluble fraction (log2)": -1.49},
      {"sequence": "HMSKNIRQQFLDVLPKTFDRNQYLETAKKLSINAKTAEGYIKKFVEANLLDHPKHNHYINLKKVEEVETK", "soluble fraction (log2)": 0.229},
      {"sequence": "HMQDELSSSVIEEAVVVLLLRAANIDGKKDEQEIEAIKRLIIQQFNYDEEKADILITSASEK", "soluble fraction (log2)": -0.218},
      {"sequence": "HMAPRKNIRLLRAAQDKAAAEGDHETVDAIRGQIAALIETLPVQYREEYLLQEKGRENGLKLAIENAAK", "soluble fraction (log2)": 0.423},
      {"sequence": "HMDPDARQDAEVWLLDFLSAGPRTAQEIFTAARVEGHTRVTVKRAKATAGIQSVKQDFDGPWVWVLPGSG", "soluble fraction (log2)": -0.491},
      {"sequence": "HMSDYKSYLQELVQTDKKSLSYNVVKETGPAHDKTFEVEVEVDGIIYAHGVGKSKKEAEQNAAKNAIMISA", "soluble fraction (log2)": 0.149},
      {"sequence": "HMNEMSDTITRLLDAAETGIRLRGYHAVSFRDLAEELGIKSSSVHYYFRQKEDLGLAVVERY", "soluble fraction (log2)": 0.0289},
      {"sequence": "HMRYVVQVATFSSKNNAIRAADDLAGFVVVSNGYYRVRTGPYADRGEANAALAKARKAGYTDAFVDTS", "soluble fraction (log2)": -0.798},
      {"sequence": "HMNELVEATITTQTGRLDKVLTTIFPQYSRSQIQQLLEQGNILVNETLQKGKYKVKAGDKISLTEPAIKE", "soluble fraction (log2)": 0.111}
    ]}
  ]
}
